Reference: publication PMC6325239 (Nature Communications, 2019)

Molecular target: T1, Munc13-1 MUN domain (residues 933–1407, EF, 1453–1531) (rat, UniProt Q62768 933-1407; Q62768 1453-1531)
T1 construct: Munc13-1, rat, residues 933-1407; linker that replaces residues 1408-1452; Munc13-1, rat, residues 1453-1531; Used in native PAGE, crystallization and, as far as told, fluorescence anisotropy; also called the MUN domain; source: E. coli BL21 DE3, pGEX-KG, purified (glutathione Sepharose, thrombin, SEC, ion exchange)
Experiment: crystal structure; MUN crystals (20% PEG 3350, 0.1 M MES pH 5.8–6.3, 0.2 M Mg(NO3)2, 4 °C) soaked with the LR peptide at 1:4 (MUN:peptide); 2.8 Å
Settings: both partners purified

binding result: binds
B1: Syb2 linker region peptide (residues 75–93 of Syb2) (peptide)
peptide: SQFETSAAKLKRKYWWKNL
notes: synaptobrevin-2 (Syb2), residues 75-93; also called LR; Syb2 peptide; source: synthetic peptide (Scilight Biotechnology, Beijing)
